For experiment [1], the target named is T1, Human IL-2Rβ/γ (intermediate affinity IL-2 receptor) (human, UniProt P14784 27-551; P31785 23-369).
T1 construct: whole, on cells; also called IL-2Rβ/γc; IL-2Rβ (CD122) and γ (CD132)
T1 sequence (looked up) 1: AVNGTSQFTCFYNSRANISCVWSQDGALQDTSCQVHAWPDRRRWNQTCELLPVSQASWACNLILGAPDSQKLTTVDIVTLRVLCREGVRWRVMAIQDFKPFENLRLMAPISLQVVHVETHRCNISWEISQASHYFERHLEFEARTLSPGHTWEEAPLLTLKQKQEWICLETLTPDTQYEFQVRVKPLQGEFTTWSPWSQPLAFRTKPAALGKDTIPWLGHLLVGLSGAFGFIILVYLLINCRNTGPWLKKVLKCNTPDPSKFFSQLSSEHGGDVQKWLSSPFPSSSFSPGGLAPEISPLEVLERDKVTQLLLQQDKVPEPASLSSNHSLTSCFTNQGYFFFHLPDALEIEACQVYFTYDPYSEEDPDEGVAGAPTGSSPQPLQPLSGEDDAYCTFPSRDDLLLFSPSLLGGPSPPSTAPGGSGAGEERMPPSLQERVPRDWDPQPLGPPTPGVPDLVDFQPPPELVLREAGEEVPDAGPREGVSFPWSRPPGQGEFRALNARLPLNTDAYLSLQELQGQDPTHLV
T1 sequence (looked up) 2: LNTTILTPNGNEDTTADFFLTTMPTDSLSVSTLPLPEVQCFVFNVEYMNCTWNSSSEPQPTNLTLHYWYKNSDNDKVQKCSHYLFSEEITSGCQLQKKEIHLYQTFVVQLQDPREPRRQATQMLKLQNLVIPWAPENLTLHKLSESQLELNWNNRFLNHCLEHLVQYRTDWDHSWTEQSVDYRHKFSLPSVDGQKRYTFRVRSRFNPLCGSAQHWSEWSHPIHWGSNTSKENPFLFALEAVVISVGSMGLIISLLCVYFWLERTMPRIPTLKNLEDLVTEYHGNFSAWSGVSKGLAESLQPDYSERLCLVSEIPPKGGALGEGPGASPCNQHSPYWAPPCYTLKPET
Nature of the experiment: FACS, HH cells. The protocol: (§1) Human cutaneous T cell lymphoma HH cells, malignant non-Hodgkin's lymphoma NK92 cells and cutaneous T cell lymphoma MJ20 cells were used for binding assay. They both constitutively express IL-2Rβ (CD122) and […] (CD132), and NK92 and MJ20 also expresses IL-2Rα (CD25). HH, NK92 and MJ20 cells were cultured following ATCC guidance, then transferred to a 96-plate for binding analysis. Cells were incubated with IL-2/Fc fusion proteins at the indicated concentrations for 30 min at 4° C. to avoid internalization. Binding was detected by 2nd antibody of PE-anti-human Fc at 4° C. for another 30 min. The median fluorescence intensity (MFI) on HH and NK92 cells was measured using FACS.
In general terms: Flow cytometry measures light scatter and fluorescence of single cells or particles in a stream.

Experiment [2] has as its target T1, Human IL-2Rβ/γ (intermediate affinity …). Briefly: FACS, HH cells; EC50 fold vs T2U0.E44-1. As for the experimental part: as §1
The target of experiment [3] is T2, Human IL-2Rα/β/γ complex (high affinity IL-2 receptor) (human, UniProt P01589 22-272; P14784 27-551; P31785 23-369).
T2 sequence (looked up) 1: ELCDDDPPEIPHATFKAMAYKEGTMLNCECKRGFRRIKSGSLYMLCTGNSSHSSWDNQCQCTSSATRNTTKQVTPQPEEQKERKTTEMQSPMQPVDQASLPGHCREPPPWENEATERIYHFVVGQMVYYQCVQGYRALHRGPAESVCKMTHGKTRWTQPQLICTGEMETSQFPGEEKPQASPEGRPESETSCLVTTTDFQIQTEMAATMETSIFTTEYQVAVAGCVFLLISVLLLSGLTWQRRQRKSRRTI
T2 sequence (looked up) 2: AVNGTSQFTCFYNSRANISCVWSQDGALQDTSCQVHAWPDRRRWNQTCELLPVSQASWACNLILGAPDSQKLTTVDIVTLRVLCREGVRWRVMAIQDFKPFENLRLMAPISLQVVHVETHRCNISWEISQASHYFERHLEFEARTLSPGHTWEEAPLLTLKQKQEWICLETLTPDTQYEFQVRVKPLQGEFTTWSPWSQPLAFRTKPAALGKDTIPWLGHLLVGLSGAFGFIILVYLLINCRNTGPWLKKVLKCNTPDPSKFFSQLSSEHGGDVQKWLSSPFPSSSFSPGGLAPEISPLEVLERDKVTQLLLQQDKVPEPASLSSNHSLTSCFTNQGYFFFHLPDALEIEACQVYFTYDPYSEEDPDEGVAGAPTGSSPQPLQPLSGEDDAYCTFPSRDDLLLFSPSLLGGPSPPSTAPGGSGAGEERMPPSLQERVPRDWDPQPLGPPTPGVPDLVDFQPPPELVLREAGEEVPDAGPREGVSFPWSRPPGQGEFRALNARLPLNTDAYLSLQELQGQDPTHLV
T2 sequence (looked up) 3: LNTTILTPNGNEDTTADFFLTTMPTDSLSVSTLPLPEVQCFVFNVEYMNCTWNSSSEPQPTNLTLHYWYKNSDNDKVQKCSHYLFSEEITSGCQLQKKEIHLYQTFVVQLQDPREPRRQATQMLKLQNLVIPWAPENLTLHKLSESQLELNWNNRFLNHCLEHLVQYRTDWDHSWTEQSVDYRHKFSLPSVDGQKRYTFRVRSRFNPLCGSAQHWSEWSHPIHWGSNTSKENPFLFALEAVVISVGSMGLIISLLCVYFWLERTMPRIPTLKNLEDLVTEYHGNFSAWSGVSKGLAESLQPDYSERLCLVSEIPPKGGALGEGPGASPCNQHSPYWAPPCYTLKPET
Briefly: cell-based or functional assay.

In experiment [4] the target is T1, Human IL-2Rβ/γ (intermediate affinity …). Briefly: cell-based or functional assay.
For experiment [5], the target named is T2, Human IL-2Rα/β/γ complex (high affinity …). Briefly: cell-based or functional assay. This is another data set of the same source.
In experiment [6] the target is T1, Human IL-2Rβ/γ (intermediate affinity …). Nature of the experiment: cell-based or functional assay. This is another data set of the same source.
In experiment [7] the target is T2, Human IL-2Rα/β/γ complex (high affinity …). Briefly: FACS, MJ20 cells; EC50 fold vs T2U0.E44-1. A digest of the protocol:
(§2)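 Cutaneous T cell lymphoma MJ20 cells, expressing IL-2Rα, β and γ, incubated with IL-2/Fc fusion proteins 30 min at 4 °C to prevent internalization. Binding detected with PE-anti-human Fc, 30 min at 4 °C, as median fluorescence intensity by flow cytometry; fold EC50 relative to T2U0.E44-1.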

The target of experiment [8] is T1, Human IL-2Rβ/γ (intermediate affinity …). Nature of the experiment: FACS, HH cells; EC50 fold vs T2U0.E44-1. The protocol:
as §1
The source holds these as a separate data set.

Experiment [9] has the same target. Briefly: FACS, HH cells. The protocol: as §1
This is another data set of the same source.

Experiment [10] concerns the target T2, Human IL-2Rα/β/γ complex (high affinity …). Briefly: FACS, NK92 cells; EC50 fold vs T2U0.E44-1. The protocol:
as §1

For experiment [11] the target is unchanged. Nature of the experiment: FACS, MJ20 cells. Put shortly: as §2
For experiment [12] the target is unchanged. Briefly: FACS, NK92 cells. The protocol:
as §1

For experiment [13] the target is unchanged. Briefly: cell-based or functional assay. The source holds these as a separate data set.
Experiment [14] has as its target T1, Human IL-2Rβ/γ (intermediate affinity …). Nature of the experiment: cell-based or functional assay. This is another data set of the same source.
Experiment [15] concerns the target T2, Human IL-2Rα/β/γ complex (high affinity …). Briefly: FACS, MJ20 cells; EC50 fold vs T2U0.E44-1. The protocol:
as §1
This is another data set of the same source.

The target is the same in experiment [16]. Briefly: FACS, MJ20 cells. The protocol: as §1
This is another data set of the same source.

The values below come from patent publication US20250000946A1 (WUXI BIOLOGICS IRELAND, published 2025).

Read-outs that look alike come from different tables or passages of the source.

B1: W3XX115-T2U0.E44-6.uIgG4V1 (Fc fusion)
chain: APTSSSTKKTQLQLEHLLLDLQMILNGINNYKNPKLTRMLTFKFYMPKKATELKHLQCLEEELKPLEEVLNLAQSKNFHLRPRDLISNINVIVLELKGSETTFMCEYADETATIVEFLNRWITFCQSIIESKYGPPCPPCPAPEFLGGPSVFLFPPKPKDTLMISRTPEVTCVVVDVSQEDPEVQFNWYVDGVEVHNAKTKPREEQFNSTYRVVSVLTVLHQDWLNGKEYKCKVSNKGLPSSIEKTISKAKGQPREPQVYTLPPCQEEMTKNQVSLWCLVKGFYPSDIAVEWESNGQPENNYKTTPPVLDSDGSFFLYSRLTVDKSRWQEGNVFSCSVMHEALHNHYTQKSLSLSLG
heavy: EIQLQQSGPELVKPGASVKVSCKASGYSFTDYNMYWVKQSHGESLEWIGYIDPYNGGTRYNQKFKGKATLTVDKSSSTAFMHLNSLTSEDSAVYYCARNGHWDGAWFAYWGQGTLVTVSAASTKGPSVFPLAPCSRSTSESTAALGCLVKDYFPEPVTVSWNSGALTSGVHTFPAVLQSSGLYSLSSVVTVPSSSLGTKTYTCNVDHKPSNTKVDKRVESKYGPPCPPCPAPEFLGGPSVFLFPPKPKDTLMISRTPEVTCVVVDVSQEDPEVQFNWYVDGVEVHNAKTKPREEQFNSTYRVVSVLTVLHQDWLNGKEYKCKVSNKGLPSSIEKTISKAKGQPREPQVCTLPPSQEEMTKNQVSLSCAVKGFYPSDIAVEWESNGQPENNYKTTPPVLDSDGSFFLVSRLTVDKSRWQEGNVFSCSVMHEALHNHYTQKSLSLSLG
light: DIQMNQSPSSLSASLGDTITITCHASQNINVWLSWYQQKPGNIPKLLIYKASNLHTGVPSRFSGSRSGTGFTLTISSLQPEDIATYYCHQGQSYPFTFGSGTKLEIKRTVAAPSVFIFPPSDEQLKSGTASVVCLLNNFYPREAKVQWKVDNALQSGNSQESVTEQDSKDSTYSLSSTLTLSKADYEKHKVYACEVTHQGLSSPVTKSFNRGEC
notes: IL-2 with C-terminal 4 aa (STLT) deleted; E44 format, IgG4
As for B1, the EC50 (commonly the concentration giving half of the maximal effect) in [1] was 533 nM; in experiment [9], 437 nM; in experiment [11], 56.6 nM; in experiment [12], 13.7 nM. In addition, the Affinity reduction in experiment [2] came out at 14.1 fold; in experiment [7] it was 4 fold; in experiment [8], 9.9 fold; in experiment [10], 2.48 fold. Besides, the results for the “Potency in human Treg EC50” value in experiment [3] and in experiment [5] were 0.032 nM and 1.51 nM, respectively. For the same molecule, the entries for the “Potency reduction (Treg)” value in [3] and in experiment [5] were 12.6 fold and 58.4 fold, respectively. For the same molecule, the “Potency in human CD8+ T EC50” value in experiment [4] was 360 nM; in [6], 175 nM. In addition, the entries for the “Potency reduction (CD8+ T)” value in [4] and in experiment [6] were 18 fold and 18.3 fold, respectively.

B2: W3XX115-T2U0.E44-37.uIgG4V322 (Fc fusion)
chain: APTSSSTKKTQLQLEHLLLDLQMILNGINNYKNPKLTRMLTFKFYMPKKATELKHLQCLEEELKPLEEVLNLAQSKNFHLRPRDLISNINVIVLELKGSETTFMCEYADETATIVEFLNRWITFCQNISESKYGPPCPPCPAPEAAGGPSVFLFPPKPKDTLMISRTPEVTCVVVDVSQEDPEVQFNWYVDGVEVHNAKTKPREEQFNSTYRVVSVLTVLHQDWLNGKEYKCKVSNKGLPSSIEKTISKAKGQPREPQVYTLPPCQEEMTKNQVSLWCLVKGFYPSDIAVEWESNGQPENNYKTTPPVLDSDGSFFLYSRLTVDKSRWQEGNVFSCSVMHEALHNHYTQKSLSLSLG
heavy: EIQLQQSGPELVKPGASVKVSCKASGYSFTDYNMYWVKQSHGESLEWIGYIDPYNGGTRYNQKFKGKATLTVDKSSSTAFMHLNSLTSEDSAVYYCARNGHWDGAWFAYWGQGTLVTVSAASTKGPSVFPLAPCSRSTSESTAALGCLVKDYFPEPVTVSWNSGALTSGVHTFPAVLQSSGLYSLSSVVTVPSSSLGTKTYTCNVDHKPSNTKVDKRVESKYGPPCPPCPAPEAAGGPSVFLFPPKPKDTLMISRTPEVTCVVVDVSQEDPEVQFNWYVDGVEVHNAKTKPREEQFNSTYRVVSVLTVLHQDWLNGKEYKCKVSNKGLPSSIEKTISKAKGQPREPQVCTLPPSQEEMTKNQVSLSCAVKGFYPSDIAVEWESNGQPENNYKTTPPVLDSDGSFFLVSRLTVDKSRWQEGNVFSCSVMHEALHNHYTQKSLSLSLG
light: DIQMNQSPSSLSASLGDTITITCHASQNINVWLSWYQQKPGNIPKLLIYKASNLHTGVPSRFSGSRSGTGFTLTISSLQPEDIATYYCHQGQSYPFTFGSGTKLEIKRTVAAPSVFIFPPSDEQLKSGTASVVCLLNNFYPREAKVQWKVDNALQSGNSQESVTEQDSKDSTYSLSSTLTLSKADYEKHKVYACEVTHQGLSSPVTKSFNRGEC
notes: IL-2 del STLT, S127N and I129S (glycosylation design); E44 format, IgG4 FALA
For the molecule B2, in experiment [13], the “Potency in human Treg EC50” value worked out at 8 nM and the “Potency reduction (Treg)” value came to 4060 fold. Besides, the “Potency in human CD8+ T EC50” value in experiment [14] is about 17.6 nM. Besides, the Affinity reduction in experiment [15] stood at 2.1 fold. For the same molecule, the Affinity reduction in [2] was determined as 190000 fold. Further, a half-maximal effect in experiment [16] (EC50) was put at 87.7 nM.
